Changes are numbered by the printed parent chain.
Key:
Assay in all cases: mass photometry; Refeyn OneMP; purified complexes diluted in 20 mM MES pH 6.5, 150 mM NaCl to around 25 nM
Conditions in all cases: both partners purified
[1] = molecular target: T1, CHSY3^H394A, secreted construct aa157-aa882 (human, UniProt Q70JA7 157-882, H394A)
T1 construct: CHSY3, human, UniProt Q70JA7, residues 157-882, mutation in the N-terminal GT domain; source: Freestyle 293-F cells, co-transfected with CHPF, secreted; purified by the same protocol as the wild-type complexes; not shown: SUMO, N-terminal, cleaved; His6, N-terminal, cleaved
T1 sequence (looked up): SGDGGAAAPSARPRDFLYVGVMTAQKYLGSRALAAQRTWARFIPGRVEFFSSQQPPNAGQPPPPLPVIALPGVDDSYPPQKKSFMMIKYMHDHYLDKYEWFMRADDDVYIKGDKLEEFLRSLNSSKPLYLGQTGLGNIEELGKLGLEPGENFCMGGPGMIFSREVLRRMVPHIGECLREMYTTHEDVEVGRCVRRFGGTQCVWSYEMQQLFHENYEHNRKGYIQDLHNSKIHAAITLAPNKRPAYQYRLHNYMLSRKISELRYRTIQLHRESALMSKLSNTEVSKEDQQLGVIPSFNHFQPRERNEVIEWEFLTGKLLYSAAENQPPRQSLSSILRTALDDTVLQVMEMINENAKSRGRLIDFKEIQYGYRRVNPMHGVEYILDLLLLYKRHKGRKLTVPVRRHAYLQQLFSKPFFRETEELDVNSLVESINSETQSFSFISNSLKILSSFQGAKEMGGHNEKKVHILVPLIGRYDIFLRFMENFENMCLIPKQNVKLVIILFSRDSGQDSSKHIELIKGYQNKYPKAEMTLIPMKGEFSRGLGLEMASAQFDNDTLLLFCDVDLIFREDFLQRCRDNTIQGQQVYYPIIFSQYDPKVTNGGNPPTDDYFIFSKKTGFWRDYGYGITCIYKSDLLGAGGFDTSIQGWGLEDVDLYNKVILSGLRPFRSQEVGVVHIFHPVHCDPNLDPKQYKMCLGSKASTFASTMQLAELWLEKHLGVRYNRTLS

[2] = molecular target: T2, CHSY3^H831A, secreted construct aa157-aa882 (human, UniProt Q70JA7 157-882, H831A)
T2 construct: CHSY3, human, UniProt Q70JA7, residues 157-882, mutation in the C-terminal GT domain; source: Freestyle 293-F cells, co-transfected with CHPF, secreted; purified by the same protocol as the wild-type complexes; not shown: SUMO, N-terminal, cleaved; His6, N-terminal, cleaved
T2 sequence (looked up): T1 sequence (looked up) with A238H, H675A

[3] = molecular target: T3, Chondroitin Sulfate Synthase-3 (CHSY3), secreted N-terminally truncated construct aa157-aa882 (human, UniProt Q70JA7 157-882)
T3 construct: CHSY3, human, UniProt Q70JA7, residues 157-882 (membrane-spanning helix removed); Construct in pHR-CMV-TetO2 with an N-terminal chicken RPTP sigma signal peptide, SUMO, 6x His and a 3C site; no cleavage site before the C-terminal Avi tag; source: Freestyle 293-F cells, co-transfected, secreted; purified from the supernatant (HisTrap, 3C protease, second HisTrap); not shown: SUMO, N-terminal, …
T3 sequence (looked up): T1 sequence (looked up) with A238H

Measured: binding result

B1: Chondroitin Polymerizing Factor (CHPF), secreted N-terminally truncated construct aa81-aa775 (domain or fragment, human, UniProt Q8IZ52 81-775, looked up)
chain: GENWEPRVLPYHPAQPGQAAKKAVRTRYISTELGIRQRLLVAVLTSQTTLPTLGVAVNRTLGHRLERVVFLTGARGRRAPPGMAVVTLGEERPIGHLHLALRHLLEQHGDDFDWFFLVPDTTYTEAHGLARLTGHLSLASAAHLYLGRPQDFIGGEPTPGRYCHGGFGVLLSRMLLQQLRPHLEGCRNDIVSARPDEWLGRCILDATGVGCTGDHEGVHYSHLELSPGEPVQEGDPHFRSALTAHPVRDPVHMYQLHKAFARAELERTYQEIQELQWEIQNTSHLAVDGDQAAAWPVGIPAPSRPASRFEVLRWDYFTEQHAFSCADGSPRCPLRGADRADVADVLGTALEELNRRYHPALRLQKQQLVNGYRRFDPARGMEYTLDLQLEALTPQGGRRPLTRRVQLLRPLSRVEILPVPYVTEASRLTVLLPLAAAERDLAPGFLEAFATAALEPGDAAAALTLLLLYEPRQAQRVAHADVFAPVKAHVAELERRFPGARVPWLSVQTAAPSPLRLMDLLSKKHPLDTLFLLAGPDTVLTPDFLNRCRMHAISGWQAFFPMHFQAFHPAVAPPQGPGPPELGRDTGRFDRQAASEACFYNSDYVAARGRLAAASEQEEELLESLDVYELFLHFSSLHVLRAVEPALLQRYRAQTCSARLSEDLYHRCLQSVLEGLGSRTQLAMLLFEQEQGNST
notes: CHPF, human, UniProt Q8IZ52, residues 81-775 (membrane-spanning helix removed); Construct in pHR-CMV-TetO2 with an N-terminal chicken RPTP sigma signal peptide, SUMO, 6x His and a 3C site; a second 3C site stands before the C-terminal twin streptavidin tag; also called Chondroitin sulfate synthase 2; source: Freestyle 293-F cells, co-transfected, secreted; purified from the supernatant (HisTrap, …)
binds: [1] | [2] | [3]
